{"source": "paper PMC12472674", "about": "(Nanomaterials, 2025)", "key": {"[1]": {"experiment": "Octanol–water partition coefficient (logP), shake-flask method", "format": "physicochemical", "conditions": "mutually saturated n-octanol/distilled water, 10 mg freeze-dried complex in 10 mL of each phase, stirred 400 rpm 24 h, 25 °C, HPLC-UV 230 nm, SMG 5.36 mg/mL, in the presence of Zn 0.5 mg/mL (Figure 2a), mean, n = 3", "method": "The prepared SMG–PS–Zn complex suspensions were stored at −80 °C for 24 h, then freeze-dried using a lyophilizer (TFD 8501, Ilshinbiobase Co. Ltd., Dongducheon-si, Republic of Korea) at −80 °C and under a vacuum of <10 mTorr for 24 h to obtain dried samples. Then, the octanol–water partition coefficient (logP) was determined using the classical shake-flask method. Equal volumes of n-octanol and distilled water were mutually saturated by vigorous mixing and phase separation. Ten milligrams of freeze-dried complexes were placed in a 20 mL scintillation vial, followed by the addition of 10 mL each of the pre-saturated octanol and water phases. The vial was sealed and stirred at 400 rpm for 24 h to reach equilibrium. After incubation, the mixture was centrifuged at 13,000 rpm to separate the phases. The octanol phase was diluted 10-fold with methanol, and the aqueous phase was diluted 10-fold with the mobile phase. Drug concentrations in both phases were quantified using high-performance liquid chromatography (HPLC) analysis, and logP was calculated as the logarithm of the ratio of drug concentration in octanol to that in water.\nThe concentration of SMG in the complex suspension was quantified by reversed phase-HPLC, with minor modifications to previously reported methods. […] The limits of detection and quantification were 0.523 μg/mL and 1.569 μg/mL, respectively."}, "[2]": {"experiment": "Solubility of SMG in release medium", "format": "physicochemical"}, "[3]": {"conditions": "healthy subjects, SC injection; cited from earlier work", "source_text": "SMG is a 31-amino acid peptide with a molecular weight of 4113.58 Da, structurally derived from native GLP-1 by substitutions at positions 8 (alanine to α-aminoisobutyric acid) and 34 (lysine to arginine), and acylation of the lysine residue at position 26 with a C18 fatty diacid chain. These modifications enhance albu ..."}}, "data": [{"substance": "Semaglutide [SMG]", "values": [{"measurement": "logP (octanol/distilled water)", "setting": "[1]", "result": "approximately −4.7"}, {"measurement": "Solubility in PBS (pH 7.4) release medium", "setting": "[2]", "result": 26.8, "unit": "mg/mL"}, {"measurement": "Elimination half-life", "setting": "[3]", "result": "approximately 7 days"}]}]}
